# Earlier results as cited in paper PMC4243993.
# Molecular target: His105 (UniProt position 105, PPVKIHCSILA)
substance,measurement,value
Iron-sulfur cluster assembly scaffold protein IscU (Escherichia coli),pKa,around 9
